In US7301005B2, “Immunomodulatory peptides derived from heat shock proteins and uses thereof” (priority 2000, dated 2007):

Tests used:
[1] = test system: RA patients; assay: Phase I clinical trial of mucosal tolerization to dnaJP1; type: in vivo, human; conditions: 15 RA patients, by mouth, 6 months
Experimental: FIGS. 26A to 26E show the results of treatment-induced modulation of T cell responses to dnaJP1. […] Evaluation was performed at monthly intervals. Controls included PHA as a general mitogen and dnaJpv (SEQ ID NO:28). Evaluation by FACS at monthly intervals of intracellular cytokine production (pro-inflammatory—FIGS. 26 B, C and D; toleragenic—FIG. 26E) by PBMC of the patients who were responsive at the screening. Results are expressed as % CD3+ cells in dnaJP1 stimulated/unstimulated cultures.
In the Phase I clinical trial, 15 RA patients were treated with three different doses of dnaJP1 (four times per day, by mouth) for 6 months. Entry criteria required clinically active disease and pro-inflammatory T cell responsiveness in vitro to the peptide.

[2] = test system: SFMC from patients with persistent oJIA; assay: FACS analysis of CTLA+/CD25/CD4 positive cells after peptide stimulation; type: cell-based, human; conditions: FIG. 24A
From the text: “TC” indicates tissue culture not stimulated. Bars represent SD.
FACS analysis was used to evaluate the percent of CTLA+/CD25/CD4 positive cells following stimulation of representative SFMC from patients with persistent oJIA with non-homologous human peptide 134. The % of CTLA+/CD25/CD4 positive cells, which are believed to have a regulatory function, was higher in the peptide treated cells as compared to cells maintained under control conditions (FIG. 24A). Expansion of the regulatory cells in response to peptide 134 correlated well with production of IL-10 in the same culture conditions (FIG. 24B).

[3] = test system: SFMC from patients with oJIA; assay: Cytokine production in culture supernatants of SFMC incubated with dnaJ and restimulated with autologous feeder cells plus peptide; type: cell-based, human
From the text: Results are expressed as pg/ml (mean+SD).
Cytokine production to the same peptides was examined in culture supernatants of SFMC from patients with oJIA. […] SFMC from only one of 21 patients with oJIA produced detectable levels of the anti-inflammatory cytokine IL-10, and none produced detectable levels of IL-4.
(§1) In order to evaluate whether human homologous peptides could be the target of cross-recognition leading to self reactivity, human peptides derived from regions of HSJ1, HDJ1, or HDJ2 having sequence homology with E. coli dnaJ were studied. SFMC of 14 patients with oJIA presenting a SI to the recombinant E. coli hsp dnaJ greater than 3 were restimulated for 96 hr with autologous cells in presence or absence of human peptide 2, 3, or 5, which are homologs of bacterial peptide 4; human peptide 20, 21, or 23, which are homologs of bacterial peptide 22; or human peptide 164, 167, or 176, which are homologs of bacterial peptide 174. SFMC proliferative responses, pro-inflammatory cytokine production, and anti-inflammatory IL-4 levels were overall similar between the peptides derived from human dnaJ proteins and the homologous bacterial peptides.
Results are expressed as SI or pg/ml (mean+SD).

[4] = test system: SFMC from patients with oJIA; assay: Proliferative response of SFMC incubated with dnaJ and restimulated with autologous feeder cells plus peptide; type: cell-based, human; conditions: persistent n=16, extended n=15; p=0.05
Experimental: Results, expressed as stimulation index (SI), are shown as mean+SD.
In order to identify possible relevant epitopes on the bacterial dnaJ protein, PBMC and SFMC of patients with oJIA were incubated for 72 hr with dnaJ, and restimulated with autologous feeder cells the in presence or absence of selected E. coli derived MHC class II binder peptides for 96 hr.
as §1
Results are expressed as SI or pg/ml (mean+SD). […]
To explore the possible correlation of clinical features with the development of peptide-induced immune modulation, oJIA patients were grouped according to the course of disease, including those with persistent disease (n=16), and those with extended disease (n=15) o-JIA. (FIG. 25).

[5] = test system: synovial fluid mononuclear cells (SFMC) from patients with oJIA; assay: Proliferative response (stimulation index) of SFMC stimulated with antigen for 96 hr; type: cell-based, human; conditions: for ratio SI SFMC/SI PBMC, dnaJ compared with TT: paired PBMC-SFMC samples from oJIA patients
[6] = test system: CD3+CD69+ cells in PBMC and SFMC; assay: Evaluation of activated CD3+CD69+ T cells after incubation with recombinant E. coli hsp dnaJ; type: cell-based, human; conditions: p=0.0002
Experimental: FIG. 1B provides an evaluation of CD69+ T cells from healthy subjects (CTRL) and patients with oJIA following 72 hour incubation with recombinant E. coli hsp dnaJ. Results, expressed as percentage CD3+CD69+ cells, are shown as mean+SD.
To evaluate whether dnaJ-specific T cells were enriched at the synovial sites of inflammation, synovial fluid mononuclear cells (SFMC) from all patients with oJIA were stimulated with dnaJ for 96 hr.

[7] = test system: peripheral blood mononuclear cells (PBMC); assay: Proliferative response (stimulation index) of PBMC stimulated with antigen for 96 hr; type: cell-based, human; conditions: 10 healthy subjects vs 21 patients with oJIA
[8] = test system: PBMC and SFMC from healthy controls and patients with oJIA; assay: Cytokine production in culture supernatants of PBMC or SFMC stimulated with recombinant E. coli hsp dnaJ for 72 hr; type: cell-based, human
Experimental: Results, expressed as pg/ml, are shown as mean+SD.
The production of the pro-inflammatory cytokines interferon-gamma (IFNγ) and tumor necrosis factor-alpha (TNFα), and the anti-inflammatory cytokines interleukin-4 (IL-4) and IL-10 was evaluated in culture supernatants of PBMC from healthy controls and in PBMC-SFMC paired samples from patients with oJIA incubated for 72 hr with or without dnaJ.

QKRAAYDQYGHAAFE (listed as Escherichia coli) [dnaJP1]
treatment-induced change of T cell cytokine responses [1]: dramatic immune deviation from pro-inflammatory to regulatory-type cytokines

SGPFFTFSSSFPGHS (listed as Homo sapiens) [Peptide 134, non-homologous human peptide (HSJ1)]
% of CTLA+/CD25/CD4 positive cells vs control conditions [2]: higher
IL-10 production, extended disease vs persistent o-JIA ([3]; p=0.0012): highly significant difference
IFN production, extended disease vs persistent o-JIA ([3]; p=0.076): border line level of statistical significance
Proliferative responses, extended disease vs persistent o-JIA [4]: significantly lower

B1: dnaJ: recombinant E. coli heat shock protein dnaJ (protein, UniProt P08622 2-376, looked up)
Chaperone protein DnaJ: AKQDYYEILGVSKTAEEREIRKAYKRLAMKYHPDRNQGDKEAEAKFKEIKEAYEVLTDSQKRAAYDQYGHAAFEQGGMGGGGFGGGADFSDIFGDVFGDIFGGGRGRQRAARGADLRYNMELTLEEAVRGVTKEIRIPTLEECDVCHGSGAKPGTQPQTCPTCHGSGQVQMRQGFFAVQQTCPHCQGRGTLIKDPCNKCHGHGRVERSKTLSVKIPAGVDTGDRIRLAGEGEAGEHGAPAGDLYVQVQVKQHPIFEREGNNLYCEVPINFAMAALGGEIEVPTLDGRVKLKVPGETQTGKLFRMRGKGVKSVRGGAQGDLLCRVVVETPVGLNERQKQLLQELQESFGGPTGEHNSPRSKSFFDGVKKFFDDLTR
mean stimulation index (SI) of SFMC vs corresponding PBMC ([5]; oJIA patients, 96 hr, p=0.01): significantly higher
ratio SI SFMC/SI PBMC, dnaJ compared with TT [5]: significantly (p=0.038) higher
ratio SI SFMC/SI PBMC, dnaJ compared with TT ([5]; listed as recombinant dnaJ): significantly (p<0.02) greater
percentage of activated T cells (CD3+CD69+ cells), SFMC with respect to PBMC [6]: significantly higher
Proliferative responses of PBMC, healthy subjects vs oJIA patients [7]: not significantly different
cytokine production from PBMC of patients and controls ([8]; 72 hr): no difference
IL-4 levels ([8]; controls and patients, supernatants from PBMC and SFMC): below the detection limit
IL-10 production, SFMC vs PBMC ([8]; oJIA patients, 72 hr): comparable in the two compartments
TNFα production, SFMC vs PBMC ([8]; oJIA patients, 72 hr): comparable in the two compartments
IFNγ production, SFMC vs PBMC ([8]; oJIA patients, 72 hr, p<0.01): significantly higher production
